Laboratory results as given in article PMC9601805, “Characterization of the Escherichia coli pyridoxal 5′‐phosphate homeostasis protein (YggS): Role of lysine residues in PLP binding and protein stability” (Protein Science : A Publication of the Protein Society, 2022).
Where a chain is given by its changes, count along the chain named. Names and notes keep the numbering of the source. Values joined by “and” are separate entries in the source; they are usually repeats but may differ in a detail not shown here. Equal entries are not always repeated. Where two headings read alike, the source gives them in different places.

Columns and labels:
apo‐YggS [1] = biological target: T1, apo‐YggS (Escherichia coli, UniProt P67080); assay: biochemical; format: binding
T1 construct: made in house; host or cells: E. coli HMS174(DE3)
Experimental: The thermal stability of holo‐ and apo‐YggS forms was analyzed by differential scanning fluorimetry (DSF).
Differential scanning fluorimetry (DSF) assays were performed on a Real Time PCR Instrument (CFX Connect Real Time PCR system, Bio‐Rad, Hercules, CA). In a typical experiment, 2 μM WT and variant apo‐YggS forms in 50 mM NaHEPES, pH 7.5, 50 mM NaCl, and Sypro Orange (5x, Thermo Scientific) were mixed with various ligands (total volume of 25 μl) in a 96‐well PCR plate. […] All samples were run in triplicate. Denaturation profiles were analyzed as described in Nardella et al.[40]

apo‐YggS [2] = biological target: T1, apo‐YggS; assay: biochemical; format: binding; details: for Kd: dissociation constant (K D), ligand binding to WT apo-YggS, fluorescence change, 50 mM NaHEPES pH 7.6
Experimental: (§1) Equilibrium binding analyses were carried out by measuring the decrease of protein intrinsic fluorescence observed upon the addition of increasing PLP concentrations to a fixed concentration of apo‐YggS (Figure 1b).
Dissociation constants were calculated from saturation curves obtained measuring the protein fluorescence emission intensity as a function of increasing PLP concentration. […] Fluorescence emission spectra were recorded from 310 to 450 nm upon excitation at 280 nm. Excitation and emission slits were set at 3 and 5 nm, respectively.

apo‐YggS [3] = biological target: T1, apo‐YggS; assay: Kinetics of PLP binding to apo-YggS, absorbance of protonated Schiff base; details: manual mixing time
Experimental: as §1
(§2) We set up a novel in vitro discontinuous assay in which PLP transfer from holo‐YggS to the apo‐form of eSHMT could be followed (see Section 4 for details). In this assay, the increase in SHMT activity is measured as PLP dissociates from holo‐YggS and binds to apo‐SHMT, forming the catalytically active holo‐SHMT. […] The binding kinetics of free PLP to either apo‐YggS or apo‐SHMT was measured by manually mixing 20 μM free PLP with 20 μM of protein, observing the formation of the internal aldimine at 420 nm.

eSHMT = eSHMT (Escherichia coli, UniProt P0A825); assay: PLP binding to eSHMT; details: read-out: K D for PLP
[4] = biological target: T2, E. coli serine hydroxymethyltransferase, apo-form (E. coli, UniProt P0A825 1-417); assay: SPR; SensiQ Pioneer, COOH5 chip; apo-SHMT immobilised via amine coupling (100 RU); holo-YggS injected at 0.24-180 μM in PBS with 0.005% surfactant P20, 30 μl/min; done twice; Scatchard analysis; details: both partners purified
T2 construct: serine hydroxymethyltransferase of E. coli, encoded by the glyA gene; without PLP (apo-form); also called apo-SHMT; apoSHMT; source: apo-form prepared with L-cysteine as for apo-YggS
T2 sequence (looked up): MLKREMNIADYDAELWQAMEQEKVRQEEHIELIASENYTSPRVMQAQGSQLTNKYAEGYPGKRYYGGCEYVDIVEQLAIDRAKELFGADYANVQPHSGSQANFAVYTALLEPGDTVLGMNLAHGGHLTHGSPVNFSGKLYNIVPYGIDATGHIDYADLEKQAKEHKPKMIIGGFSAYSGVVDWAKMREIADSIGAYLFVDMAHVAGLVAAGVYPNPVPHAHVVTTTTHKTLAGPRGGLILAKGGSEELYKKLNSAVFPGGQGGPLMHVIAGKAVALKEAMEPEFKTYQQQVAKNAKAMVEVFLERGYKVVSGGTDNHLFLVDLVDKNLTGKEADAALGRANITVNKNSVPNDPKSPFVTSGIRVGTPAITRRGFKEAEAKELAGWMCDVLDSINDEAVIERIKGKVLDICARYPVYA

[5] = PLP binding equilibrium of YggS WT and variant forms, intrinsic fluorescence change; details: E. coli YggS form 0.1 μM, 50 mM NaHEPES pH 7.6, 25°C, excitation 280 nm; mean ± SEM; read-out: K D (nM) of the PLP binding equilibrium
Experimental: Analyses took advantage of YggS intrinsic fluorescence decrease observed upon binding of PLP. Dissociation constants were calculated from saturation curves obtained measuring the protein fluorescence emission intensity as a function of increasing PLP concentration. Fluorescence emission measurements were carried out at 25°C, in 50 mM NaHEPES buffer at pH 7.6 with a FluoroMax‐3 Jobin Yvon Horiba spectrofluorometer, using a 1‐cm path length quartz cuvette. All analyzed YggS forms were used at a final subunit concentration of 0.1 μM. Fluorescence emission spectra were recorded from 310 to 450 nm upon excitation at 280 nm. Excitation and emission slits were set at 3 and 5 nm, respectively. Emission fluorescence values between 330 and 340 nm were averaged and analyzed using the following quadratic equation to obtain K D value: (1) Frel=Finf−F0×PLP+[YggS]+KD−PLP+[YggS]+KD^2−4[YggS]PLP/2/[YggS]+F0

E. coli ΔyggS = assay: 4dPN sensitivity assay and complementation by YggS variants in trans; format: cell-based, Escherichia coli; details: expression in trans, M9 0.4% glucose, 1 μM PN, 20 μl of 25 mM 4dPN
Experimental: Bacteria were grown in Luria‐Bertani (LB; Tryptone 10 g L^− 1, Yeast extract 5 g L^− 1, NaCl 10 g L^− 1) or M9 minimal medium (Cold Spring Harbor Protocols, Cold Spring Harbor, NY) at 37°C, unless otherwise specified. Growth media were solidified with agar (16 g L^− 1; Fisher Scientific) for the preparation of plates. 4dPN toxicity assays were performed on thin (20 ml) M9 minimal medium plates containing 0.4% glucose (carbon source), ampicillin (100 μg ml^−1), 1 μM PN, and 0.02% or 0.2% arabinose when appropriate.
Wild‐type yggS was amplified by PCR with primers DH596 and DH598 from E. coli BW25113 and cloned in pBAD24 using restriction sites SphI and NcoI to give pBY291.3. The pBY291.3 plasmid and its derivatives were then used as templates with the NEB Q5 Site‐Directed Mutagenesis Kit and the primer pairs indicated in Table S4 to introduce site‐directed residue mutant constructs. All constructs were verified by sequencing and transformed into E. coli wild‐type (BW25113) and ΔyggS (VDC6594) electrocompetent cells for use in physiological studies. Plasmid transformations were performed following standard procedures and protein expression from each construct was confirmed by SDS‐PAGE and western blot analysis.
Three isolated colonies of each strain were inoculated into 5 ml LB Amp 200 μg ml^− 1 and incubated at 37°C and 200 rpm overnight. Overnight cultures were diluted 1:500 into 5 ml fresh LB Amp 200 μg ml^− 1 ± 0.02% or 0.2% arabinose and grown at 37°C, shaking. Once cultures reached midlog growth (OD600 of 0.4–0.7) samples were taken from each culture for western blot analysis (below) then cells were again incubated until stationary growth was reached (~6 hr). Cells were harvested by centrifugation then washed twice with and resuspended in 1x PBS. Optical density of washed cells was measured at 600 nm in 1 ml cuvettes (Fisher Scientific) using a BioSpec‐mini DNA/RNA/Protein analyzer (Shimadzu Biotech) and each strain was normalized to an OD600 of 0.006 in 3 ml 1x PBS. […]

[6] = Differential scanning fluorimetry (DSF), apparent Tm of YggS forms; format: physicochemical; details: for T m (°C) Apo +2 μM PLP: 2 μM protein + 2 μM (equimolar) PLP; for T m (°C) Apo + 300 μM PLP: 2 μM protein + 300 μM PLP; for T m (°C) Apo: apo-form, 2 μM protein, no PLP
Experimental: Differential scanning fluorimetry (DSF) assays were performed on a Real Time PCR Instrument (CFX Connect Real Time PCR system, Bio‐Rad, Hercules, CA). In a typical experiment, 2 μM WT and variant apo‐YggS forms in 50 mM NaHEPES, pH 7.5, 50 mM NaCl, and Sypro Orange (5x, Thermo Scientific) were mixed with various ligands (total volume of 25 μl) in a 96‐well PCR plate. Fluorescence was measured from 25°C to 95°C in 0.4°C/30 s steps (excitation 450–490 nm; detection 560–580 nm). All samples were run in triplicate. Denaturation profiles were analyzed as described in Nardella et al.[40]

apo‐eSHMT = apo‐eSHMT (Escherichia coli, UniProt P0A825)
Experimental: as §2
WT Holo‐YggS (20 μM with respect to PLP) was mixed with 20 μM apo‐eSHMT in 50 mM NaHEPES buffer at pH 7.6.

[7] = Covalent (Schiff base) PLP binding judged by absorption spectra; details: ~416–420 nm band
Experimental: Our strategy was to start from the K36A variant and gradually add further variations so as to obtain all possible combinations of double, triple, and quadruple variants. Variations of the last two residues at the C‐terminal end of the protein, K233 and K234, were always introduced together and are therefore considered as a single K233A/K234A variation.
All spectroscopic measurements were carried out at 20°C in 20 mM NaHEPES pH 7.5. UV–visible spectra were recorded with a Hewlett‐Packard 8453 diode‐array spectrophotometer. Far‐UV (190–250 nm) and Near‐UV–visible (250–500 nm) CD spectra were measured with a Jasco 710 spectropolarimeter equipped with a DP 520 processor using 0.1‐cm (far‐UV) or 1‐cm path length quartz cuvettes and results were expressed as ellipticity [Θ]. Absorption spectra of WT and variant forms were deconvoluted into their component bands using Metzler's band‐shape analysis method.[22]

[8] = 20 μM holo-YggS, 20 μM apo-SHMT, 37°C

Q: Which results are given for `Cc1ncc(CO)c(C=O)c1O` [PL, pyridoxal]?
A: binding to apo-YggS by DSF (apo‐YggS [1]; B6 vitamers and analogs): only PL and PNP bind; Kd (apo‐YggS [2]): 57000 ± 20000 nM

Q: Which results are given for `Cc1ncc(COP(=O)(O)O)c(C=O)c1O` [PLP, pyridoxal 5′‐phosphate]?
A: Kd (apo‐YggS [1]): ~50000 nM; time to reach PLP binding equilibrium (apo‐YggS [3]): ≤ 3 s; Kd (apo‐YggS [2]): 1.3 nM and ~1 nM; stoichiometry ratio of PLP binding (apo‐YggS [2]; titration with 1 μM apo-YggS): one; Kd (eSHMT): ~5 nM

B1: Escherichia coli pyridoxal 5'-phosphate homeostasis protein (YggS), wild type, holo-form (natural protein, E. coli, UniProt P67080 1-234, looked up)
chain: MNDIAHNLAQVRDKISAAATRCGRSPEEITLLAVSKTKPASAIAEAIDAGQRQFGENYVQEGVDKIRHFQELGVTGLEWHFIGPLQSNKSRLVAEHFDWCHTIDRLRIATRLNDQRPAELPPLNVLIQINISDENSKSGIQLAELDELAAAVAELPRLRLRGLMAIPAPESEYVRQFEVARQMAVAFAGLKTRYPHIDTLSLGMSDDMEAAIAAGSTMVRIGTAIFGARDYSKK
modifications: PLP covalently bound to Lys36 through a Schiff base linkage
notes: YggS (PLP homeostasis protein, PLPHP) of E. coli; K233 and K234 are the last two residues; Two wild-type constructs were made in pET28b(+): His-tag at the C-terminal end (NcoI/XhoI, pET28yggS) and His-tag at the N-terminal end (NdeI/EcoRI); Samples from the standard purification held about 70-80% PLP per monomer; also called holo-YggS; YggS-PLP; source: E. coli HMS174(DE3), purified (ammonium …)
Q: With B1 as the molecule, how does the Kd [4] read?
A: The Kd was 4800 ± 800 nM.

B2: K137A: E. coli YggS single lysine variant K137A (protein)
chain: B1 chain with K137A
modifications: left off: His-tag, C-terminal, state not stated
Q: Which Kd [5] does the source give for B2 here?
A: The Kd was 1.8 ± 1.9 nM.

Q: What about the “complementation of the 4dPN sensitivity phenotype of ΔyggS” value (E. coli ΔyggS) of the same molecule?
A: The value was “failed to complement”.

Q: And the “T m (°C) Apo +2 μM PLP” value [6]?
A: Its value is 71.5 ± 0.1 °C.

Q: And the “T m (°C) Apo + 300 μM PLP” value [6]?
A: The value was 82.5 ± 0.1 °C.

Q: What about the “T m (°C) Apo” value [6] of the same molecule?
A: The value was 60.3 ± 0.1 °C.

Q: What about the “PLP transfer kinetics compared with WT YggS” value (apo‐eSHMT; transfer to apo-SHMT) of the same molecule?
A: Its value is “same transfer kinetics as that observed with WT YggS”.

Q: And the “capability to bind PLP covalently as a Schiff base” value [7]?
A: The value was “able to bind PLP as a Schiff base”.

B3: WT: recombinant His-tagged wild-type E. coli YggS, the PLP homeostasis protein (PLPHP) (protein)
chain: B1 chain
modifications: PLP covalently bound to Lys36 through a Schiff base linkage; left off: His-tag, end not stated, kept
Q: For B3, which Kd [5] is on record?
A: Its Kd is 1.3 ± 0.8 nM.

Q: What about the “complementation of the 4dPN sensitivity phenotype of ΔyggS” value (E. coli ΔyggS) of the same molecule?
A: Its value is “complemented”.

Q: What about the “T m (°C) Apo +2 μM PLP” value [6] of the same molecule?
A: Its value is 70.8 ± 0.8 °C.

Q: What about the “T m (°C) Apo +2 μM PLP” value ([6]; listed as apo‐YggS) of the same molecule?
A: Its value is 70 °C.

Q: What about the “T m (°C) Apo + 300 μM PLP” value [6] of the same molecule?
A: Its value is 82.2 ± 0.1 °C.

Q: And the “T m (°C) Apo + 300 μM PLP” value ([6]; listed as apo‐YggS)?
A: Its value is “about 82 °C”.

Q: And the “T m (°C) Apo” value [6]?
A: Its value is 55.1 ± 0.3 °C.

Q: What about the “T m (°C) Apo” value ([6]; listed as apo‐YggS) of the same molecule?
A: The value was 56 °C.

Q: What about the “PLP initially bound to YggS transferred to SHMT at equilibrium” value (apo‐eSHMT; [8]) of the same molecule?
A: Its value is “approximately 15%”.

Q: What about the “time to reach PLP transfer equilibrium” value (apo‐eSHMT; [8]) of the same molecule?
A: Its value is “about 30 min”.

Q: And the “rate constant of PLP transfer” value (apo‐eSHMT; 20 μM holo-YggS, 20 μM apo-SHMT, 37°C, 50 mM NaHEPES pH 7.6)?
A: The value was 0.14 ± 0.02 min⁻¹.
